Assays:
[1] = Analytical size exclusion chromatography (percent monomer); format: physicochemical; settings: NEM-conjugated cysteine variants; SEC, Abs280 monomer region 5.5-6 minutes vs oligomer region 4-5.3 minutes
Description: Size exclusion chromatography was used to determine the aggregation state of the FN3 domains binding EGFR. Aliquots (10 μL) of each purified FN3 domain were injected onto a Superdex 75 5/150 column (GE Healthcare) at a flow rate of 0.3 mL/min in a mobile phase of PBS pH 7.4. Elution from the column was monitored by absorbance at 280 nm.
The percent monomer for each protein was determined by integrating the Abs280 signal and comparing the peak in the monomer region (5.5-6 minutes) to the peaks in the oligomer region (4-5.3 minutes).

[2] = Thermal stability of cysteine-NEM conjugates by DSC; format: physicochemical; settings: for First Scan Tm: DSC 25-100 °C, 1 °C per minute; for Second Scan Tm: second identical scan
Description: The thermal stability of cysteine-NEM conjugates was assessed by differential scanning calorimetry (DSC). The only the conjugates tested were those determined to express at high levels, conjugate efficiently, and retain EGFR binding. Additionally, cysteine variants within the BC and FG loops were excluded. Stability data was generated by heating a 400 μL aliquot of the variant from 25° C. to 100° C. at a scan rate of 1° C. per minute in a VP-DSC instrument (MicroCal). A second identical scan was completed on the sample in order to assess the reversibility of thermal folding/unfolding. Data was fitted to a 2-state unfolding model in order to calculate the melting temperature (Table 10).

[3] = system: EGFR-overexpressing human tumor cell line H1573; test: Cytotoxicity assay in H1573 cells; format: cell-based; settings: for IC50: cysteine variants conjugated to VC-MMAF, Cell TiterGlo at 70 hours, read-out: IC50
Description: Cell killing was assessed by measuring viability of the EGFR-overexpressing human tumor cell line H1573 following exposure to the cysteine variant-cytotoxin conjugates. Cells were plated in black-well, clear bottomed, tissue culture-treated plates (Falcon 353219) at 7000/well in 100 μL/well of phenol red free RPMI media (Gibco 11835-030) with 5% fetal bovine serum (Gibco). Cells were allowed to attach overnight at 37° C. in a humidified 5% CO2 atmosphere. Medium was aspirated from 96-well plate and cells were treated with 50 uL of fresh media and 50 uL of 2× inhibitor made up in fresh media. Cell viability was determined by an endpoint assay with Cell TiterGlo (Promega) at 70 hours. IC50 values were determined by fitting data to the equation for a sigmoidal dose response with variable slope using GraphPad Prism 5 (GraphPad Software). Table 11 reports IC50 values obtained from analysis of the CellTiter Glo data.
Conjugates consisting of ECB147 cysteine variants, 83v2-cys, or Tencon-cys linked to a cytotoxic tubulin inhibitor from the auristatin family (FIG. 2) were tested for target-dependent cytotoxicity in cancer cells. The inhibitor was linked to the cysteine-containing protein via a non-cleavable PEG4 linker or an enzyme-cleavable valine-citrulline or valine-lysine linker. Cell killing was assessed by measuring viability of the EGFR-overexpressing human tumor cell lines H1573 and A431 as well as the EGFR-negative tumor cell line MDA-MB-435 following exposure to the protein-cytotoxin conjugates using the procedure described in Example 4.

| Molecule | Percent monomer [1] [%] | First Scan Tm [2] [°C] | Second Scan Tm [2] [°C] | potency relative to the parent conjugate (in words) ([3]; VC-MMAF conjugates) | IC50 [3] [nM] |
| --- | --- | --- | --- | --- | --- |
| T93C: cysteine variant of P54AR4-83v2 (SEQ ID NOS: 216 and 254); NEM and VC-MMAF conjugates (conjugate, NEM or vcMMAF conjugate; EGFR binding FN3 domain, NEM and VC-MMAF conjugates) MLPAPKNLVVSEVTEDSARLSWDDPWAFYESFLIQYQESEKVGEAIVLTVPGSERSYDLTGLKPGTEYTVSIYGVHNVYKDTNMRGLPLSAIFCT | 100 | 69 | 69 | over two times more potent than the parent | 0.2 |
| V8C: cysteine variant of P54AR4-83v2 (SEQ ID NOS: 189 and 227); NEM and VC-MMAF conjugates (conjugate, NEM or vcMMAF conjugate; EGFR binding FN3 domain, NEM and VC-MMAF conjugates) MLPAPKNLCVSEVTEDSARLSWDDPWAFYESFLIQYQESEKVGEAIVLTVPGSERSYDLTGLKPGTEYTVSIYGVHNVYKDTNMRGLPLSAIFTT | 91 | 69 | 69 | – | 0.35 |
| S10C: cysteine variant of P54AR4-83v2 (SEQ ID NOS: 190 and 228); NEM and VC-MMAF conjugates (conjugate, NEM or vcMMAF conjugate; EGFR binding FN3 domain, NEM and VC-MMAF conjugates) MLPAPKNLVVCEVTEDSARLSWDDPWAFYESFLIQYQESEKVGEAIVLTVPGSERSYDLTGLKPGTEYTVSIYGVHNVYKDTNMRGLPLSAIFTT | 80 | 68 | 68 | – | 0.43 |
| E11C: cysteine variant of P54AR4-83v2 (SEQ ID NOS: 191 and 229); NEM and VC-MMAF conjugates (conjugate, NEM or vcMMAF conjugate; EGFR binding FN3 domain, NEM and VC-MMAF conjugates) MLPAPKNLVVSCVTEDSARLSWDDPWAFYESFLIQYQESEKVGEAIVLTVPGSERSYDLTGLKPGTEYTVSIYGVHNVYKDTNMRGLPLSAIFTT | 100 | 71 | 72 | – | 0.94 |
| E14C: cysteine variant of P54AR4-83v2 (SEQ ID NOS: 192 and 230); NEM and VC-MMAF conjugates (conjugate, NEM or vcMMAF conjugate; EGFR binding FN3 domain, NEM and VC-MMAF conjugates) MLPAPKNLVVSEVTCDSARLSWDDPWAFYESFLIQYQESEKVGEAIVLTVPGSERSYDLTGLKPGTEYTVSIYGVHNVYKDTNMRGLPLSAIFTT | 96 | 70 | 71 | – | 0.34 |
| D15C: cysteine variant of P54AR4-83v2 (SEQ ID NOS: 193 and 231); NEM and VC-MMAF conjugates (conjugate, NEM or vcMMAF conjugate; EGFR binding FN3 domain, NEM and VC-MMAF conjugates) MLPAPKNLVVSEVTECSARLSWDDPWAFYESFLIQYQESEKVGEAIVLTVPGSERSYDLTGLKPGTEYTVSIYGVHNVYKDTNMRGLPLSAIFTT | 97 | 73 | 73 | – | 0.33 |
| S16C: cysteine variant of P54AR4-83v2 (SEQ ID NOS: 194 and 232); NEM and VC-MMAF conjugates (conjugate, NEM or vcMMAF conjugate; EGFR binding FN3 domain, NEM and VC-MMAF conjugates) MLPAPKNLVVSEVTEDCARLSWDDPWAFYESFLIQYQESEKVGEAIVLTVPGSERSYDLTGLKPGTEYTVSIYGVHNVYKDTNMRGLPLSAIFTT | 75 | 68 | 68 | – | 0.75 |
| S20C: cysteine variant of P54AR4-83v2 (SEQ ID NOS: 195 and 233); NEM and VC-MMAF conjugates (conjugate, NEM or vcMMAF conjugate; EGFR binding FN3 domain, NEM and VC-MMAF conjugates) MLPAPKNLVVSEVTEDSARLCWDDPWAFYESFLIQYQESEKVGEAIVLTVPGSERSYDLTGLKPGTEYTVSIYGVHNVYKDTNMRGLPLSAIFTT | 94 | 70 | 70 | – | 0.36 |
| S30C: cysteine variant of P54AR4-83v2 (SEQ ID NOS: 196 and 234); NEM and VC-MMAF conjugates (conjugate, NEM or vcMMAF conjugate; EGFR binding FN3 domain, NEM and VC-MMAF conjugates) MLPAPKNLVVSEVTEDSARLSWDDPWAFYECFLIQYQESEKVGEAIVLTVPGSERSYDLTGLKPGTEYTVSIYGVHNVYKDTNMRGLPLSAIFTT | 94 | 71 | 71 | – | 0.78 |
| L32C: cysteine variant of P54AR4-83v2; NEM and VC-MMAF conjugates (conjugate, left off: small tags and cut ends, cysteine variant of P54AR4-83v2; NEM and VC-MMAF conjugates) LPAPKNLVVSEVTEDSARLSWDDPWAFYESFCIQYQESEKVGEAIVLTVPGSERSYDLTGLKPGTEYTVSIYGVHNVYKDTNMRGLPLSAIFTT | 100 | 71 | 70 | – | 2.92 |
| Q34C: cysteine variant of P54AR4-83v2 (SEQ ID NOS: 197 and 235); NEM and VC-MMAF conjugates (conjugate, NEM or vcMMAF conjugate; EGFR binding FN3 domain, NEM and VC-MMAF conjugates) MLPAPKNLVVSEVTEDSARLSWDDPWAFYESFLICYQESEKVGEAIVLTVPGSERSYDLTGLKPGTEYTVSIYGVHNVYKDTNMRGLPLSAIFTT | 97 | 75 | 74 | – | 0.74 |
| S38C: cysteine variant of P54AR4-83v2 (SEQ ID NOS: 198 and 236); NEM and VC-MMAF conjugates (conjugate, NEM or vcMMAF conjugate; EGFR binding FN3 domain, NEM and VC-MMAF conjugates) MLPAPKNLVVSEVTEDSARLSWDDPWAFYESFLIQYQECEKVGEAIVLTVPGSERSYDLTGLKPGTEYTVSIYGVHNVYKDTNMRGLPLSAIFTT | 93 | 65 | 65 | – | 0.76 |
| K40C: cysteine variant of P54AR4-83v2 (SEQ ID NOS: 199 and 237); NEM and VC-MMAF conjugates (conjugate, NEM or vcMMAF conjugate; EGFR binding FN3 domain, NEM and VC-MMAF conjugates) MLPAPKNLVVSEVTEDSARLSWDDPWAFYESFLIQYQESECVGEAIVLTVPGSERSYDLTGLKPGTEYTVSIYGVHNVYKDTNMRGLPLSAIFTT | 97 | 70 | 70 | – | 0.73 |
| V41C: cysteine variant of P54AR4-83v2 (SEQ ID NOS: 200 and 238); NEM and VC-MMAF conjugates (conjugate, NEM or vcMMAF conjugate; EGFR binding FN3 domain, NEM and VC-MMAF conjugates) MLPAPKNLVVSEVTEDSARLSWDDPWAFYESFLIQYQESEKCGEAIVLTVPGSERSYDLTGLKPGTEYTVSIYGVHNVYKDTNMRGLPLSAIFTT | 98 | 71 | 71 | – | 1.13 |
